Test results taken from PMC7052140.

Assays:
[1] = target: Cyt1Aa Q168E activated toxin (Bacillus thuringiensis subsp. israelensis)
[2] = target: Cyt1Aa E45Q activated toxin (Bacillus thuringiensis subsp. israelensis)
[3] = target: Cyt1Aa activated toxin, wild type (Bacillus thuringiensis subsp. israelensis) (UniProt P0A382); assay: atomic force microscopy on supported lipid bilayers
[4] = target: Cyt1Aa E32Q activated toxin (Bacillus thuringiensis subsp. israelensis)

Q: How did the cytotoxicity on HEK293 cells (LC50) [1] turn out when “Cyt1Aa Q168E activated toxin (domain or fragment)” was run?
A: > 30 µM

Q: “Cyt1Aa E45Q activated toxin (domain or fragment)” was tested. Which fold reduction of cytotoxicity on HEK293 cells against the WT toxin [2] did it give?
A: 14 fold

Q: Which stoichiometry N [3] does the source give for “Cyt1Aa activated toxin, wild type (from UniProt P0A382 1-249) (domain or fragment)” here?
A: 56

Q: “Cyt1Aa E32Q activated toxin (domain or fragment)” was tested. Which fold reduction of cytotoxicity on HEK293 cells against the WT toxin [4] did it give?
A: 2.4 fold
